Reference: PMC10184537 (ACS Nano, 2023)

Biological target: murine urokinase-type plasminogen activator (murine, UniProt P06869)
Experiment: […]

murine urokinase-type plasminogen activator, sequence (P06869 21-433): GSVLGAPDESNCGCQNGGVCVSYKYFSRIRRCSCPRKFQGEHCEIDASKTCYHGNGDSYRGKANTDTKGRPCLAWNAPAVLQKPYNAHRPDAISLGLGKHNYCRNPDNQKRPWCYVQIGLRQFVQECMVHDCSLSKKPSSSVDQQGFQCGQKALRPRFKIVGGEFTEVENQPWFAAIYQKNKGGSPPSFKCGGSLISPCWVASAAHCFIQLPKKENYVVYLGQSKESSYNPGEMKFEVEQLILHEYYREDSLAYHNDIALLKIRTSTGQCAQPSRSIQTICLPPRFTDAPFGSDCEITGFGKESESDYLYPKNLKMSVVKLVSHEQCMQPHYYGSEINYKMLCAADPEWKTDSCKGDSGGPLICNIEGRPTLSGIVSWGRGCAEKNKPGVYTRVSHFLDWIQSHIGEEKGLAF

B1: nb22 nanobody (VHH)
VHH: QVQLQESGGGLVQAGGSLRLSCAASGRTFSSYVMGWFRQAPGKEREFVAAISWSGGSTNYADSVKGRFTISRDNAKNTVYLQMNSLKPEDTAVYYCAADLASSRDVSSWYWGQGTQVTVSS
binding result: binds
